Assay results reported in patent US20060292145A1 (JAPAN SCIENCE AND TECHNOLOGY, published 2006).

Target: T1, human interleukin-18 (human, UniProt Q14116 37-193)
T1 construct: Immobilised on plates in the ELISAs; also called human IL-18; IL-18
T1 sequence (looked up): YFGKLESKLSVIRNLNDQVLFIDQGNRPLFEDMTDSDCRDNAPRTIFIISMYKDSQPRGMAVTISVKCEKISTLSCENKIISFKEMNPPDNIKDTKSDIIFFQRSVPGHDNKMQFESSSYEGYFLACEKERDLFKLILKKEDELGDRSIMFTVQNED
Test: phage ELISA, scFv-presenting phage on immobilised human IL-18 (HSA as comparison), anti-M13 detection, A405
Protocol: ELISA for screening separated clones was carried out by immobilizing human IL-18 on an ELISA plate. Specifically, 2 μg/ml of human IL-18 and 2.5 μg/ml of human serum albumin (HSA) were put in a 40 μL/well ELISA plate (Nunc), allowed to stand for 16 hours at 4° C., and then immobilized on the plate. For blocking, 400 μL/well of PBS solution containing 0.5% BSA, 0.5% gelatin, and 5% skim milk was put in the ELISA plate, and then allowed to stand for 2 hours at 4° C.
Next, into the ELISA plate, 40 μL/well of sample solution containing an scFV-presenting phage was poured, and the mixture was allowed to react. Thereafter, the sample solution was removed, and the product was washed 5 times by using a cleaning liquid. Subsequently, to the immobilized scFv phage, a biotin-labeled anti-M13 monoclonal antibody (Pharmacia biotech) was added, and the mixture was allowed to react with an alkaline phosphatase (AP)-labeled anti-mouse IgG antibody serving as a secondary antibody. The reaction liquid was washed 5 times by using a cleaning liquid.

binding result: binds
B1: human anti-human IL-18 scFv fragment h18-108 (scFv, V domains shown)
VH: QVQLVQSGAEVRRPGASVRVSCKASGYTFTSHYIHWVRQAPGQGLEWVAIINPSDGRTDYAQKFQGRVTVTRDTSASSVYMGISSLRSEDTAMYYCARTARGFSYATDWGQGTLVTVSS
VL: SYELTQPPSVSVSPGQTARITCSGDALPKKYAYWYQQKPGQAPVLVIYKDSERPSGIPERFSGSSSGTTVTLTISGVQAEDEADYYCQSADSSGTYVVFGGGTQLTVL
notes: Expressed in E. coli from pCANTAB5E and purified on anti-E tag antibody; By gel filtration 90% monomer, 10% dimer
